Laboratory results: article PMC11937480 (Communications Biology, 2025)

Biological target: T1, HA-ZNF449 (UniProt Q6P9G9 1-518)
T1 sequence (looked up): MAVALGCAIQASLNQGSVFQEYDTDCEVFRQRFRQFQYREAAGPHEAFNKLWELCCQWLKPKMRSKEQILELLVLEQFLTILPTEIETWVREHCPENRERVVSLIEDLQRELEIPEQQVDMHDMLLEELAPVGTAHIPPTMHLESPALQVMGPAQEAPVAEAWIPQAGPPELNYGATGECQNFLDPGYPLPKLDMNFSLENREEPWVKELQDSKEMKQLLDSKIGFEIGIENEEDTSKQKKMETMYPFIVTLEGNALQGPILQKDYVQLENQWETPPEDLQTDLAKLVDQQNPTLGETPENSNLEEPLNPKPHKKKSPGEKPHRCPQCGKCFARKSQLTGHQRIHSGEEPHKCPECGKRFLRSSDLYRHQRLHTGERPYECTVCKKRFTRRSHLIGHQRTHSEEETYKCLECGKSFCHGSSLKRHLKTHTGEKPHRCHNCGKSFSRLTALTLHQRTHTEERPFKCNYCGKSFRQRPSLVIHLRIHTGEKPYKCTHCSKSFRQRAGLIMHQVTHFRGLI
Test: pull-down

B1: GST-fused PTOV1 (125–283 aa) truncation (domain or fragment, UniProt Q86YD1 125-283, looked up)
chain: VNQGENLETDQWPQKLIMQLIPQQLLTTLGPLFRNSQLAQFHFTNRDCDSLKGLCRIMGNGFAGCMLFPHISPCEVRVLMLLYSSKKKIFMGLIPYDQSGFVSAIRQVITTRKQAVGPGGVNSGPVQIVNNKFLAWSGVMEWQEPRPEPNSRSKRWLPS
B1: binds.
